Data taken from the DeepSol protein solubility set.

Assay: soluble on expression in E. coli; label from the status in PepcDB or PDB records

| Sequence | soluble on expression in E. coli |
| --- | --- |
| MLTLSPPPAYLVTAANPAPSVAAAAPRALVFGGSGQIGERLLTRLLGRGWQVTAWSRAPRAARAGLIWRQGDLAAPAVAGESFEVIFSCGPLDHFAHWYETNAVSTPRIVAFGSTSVEVKEHSIDAAERDVAQRLANAEQALFSAAKARGAAATVLRPTLVYGAGRDRTLTQIAGLARRTGAFVLPANATGLRQPVHVDDLASAALAVVTQPATHQRSYAVGGGEVLAYTQMVERVLEALPRPARLYQVPPSLFGLALTTAQRLGRLRSLNTAALQRMRDDLVFDLEPARRDFGYAPRAFRPLPEELGIGELEHHHHHH | not soluble |
| MGSDKIHHHHHHMRIYDPFRKKWIEEEIETPFPSKGLVATFPFVDLHVHVRLNGGEDYSSLEEASLVGGFFKVVVQPNTKPLIDSKEVLERHLDLSKNRAVEFLFAVSPFGSIEAEGERVVGFSTDGIEYDYPTLVETMKKKKKALWFDHSQMYEVDGIFYEGAPLPFQKRPRSNEAIAIARTVLTGLEYGFERFHIQHVTTKYSVEVISFLKNLAKVSCEVTPHHLFFCYEDIKNTNFKINPPLGSPEDRRALIEAVKKDVIDVLATDHAPHHEKPDDFLTAPYGSTSIEIAFPAYYTALGDLELVVKKLTKKPLEVLGVEARLTEDTLVFIDPEAEFIVDAKKFKSKGKNSMFDGVRLKGKVVALKLKGRWVMIDGEVIADQKEND | not soluble |
| MALSKFNLFIGDILFNTLTGYAIKLESWEIEKLRKGVVPEHLKDIIEEGFSATDEDLDEEIEKFLRKPVLEPTLVLTYNCNFDCIYCFQKGFRKNISVSDKVTRGFVNYIRKNEKGRKVRVTYFGGEPILQLRKIEEISRELSDLKYSFSVVTNGSLLTRKIVERLIPLGLTHVQITLDGPKEVHDKRRFFVSGEGTFDVIVKNLKEIQDMVKVVLRINIDVKNLNEIGELLNELKMEGINRVRLDPHLVHSNVFRNEWWDFTISSKAEGDVMVKFWEIARKYGFEVPQDVLRLGLCVAYSSEDIVVDPEGNIYPCWAFTGNPLYVKGKLEEDGSVKVTNKSLWWKVKIEDKCRECPFLPLCMGGCKFLATINGDDCKREAYEKIVRSIRWVMG | not soluble |
| MKHITIIGAGLAGTLCGLYLARRGYEVELFESRPDIRNSPTDYGRSINLALSCRGITALKAMNLLSEVNKIMVPMRARAIHEANGEVHYQPFGRYIDEYINAISRSDLNALLLNKAELCPNIKLHFNMKLHSLDIHNKKIKFENKNGDFVEASYHRLIGADGAPSHVRDMLKNEGIVSASRDFLSHGYKELSISKKHTKGMAREHLHLWPRDSFMLLGNPNPDDSITGSLFLANEGKDSFAELNNEEKLHLFFKTQFPDAYAAMPNLVQEFFGNPTGHLSTIQCSPWYYKDECLLIGDAAHGIIPFFGQGMNSAFEDCRILDELLDEYQDDWSRVNPLFYEQRKVNTDAIAKMSMDNYHEIHSDIRNPKFILQKQIERELMLRYPEHYVSMHVLVMFTNTPYAKAMAIGELQSGLLEQICFPITDIKELNWQEVEKLLGIYDKKLAKIILEHHHHHH | soluble |
| MFKRVFNLRFISNFSRRPTSSPKLPKLIAITGGTSLGIAFFGKTEENKNLDSGNGQLIDGKPKNFDLIVRNSDELYDNYLIDNCYNILKKFENSNCSELLWRLARVVCEKGKLSKDQNQRKELILEAYGIVKKALDNEPKNGCFGAHKWYAILLDYVGEIEGNKSRIEKSFQVRKHLEKALSIFENDPTTWHILGVWHFSFANMGYATRMVAKAIFATPPASTYQEALHYFLKAEQISPGFYSTNTYYIGEVYEQLGQKAEALDAFKQSFKMPVVTSDDAVIHKKAYEKLKKYGVKDTEVV | not soluble |
| AKGEVWEAKPVGAAALPQWIRGRLDKIGLGIEADALALFAERVEGNLLAARQEIDKLGLLYPKGHTVNIDEAQTAVANVARFDAFQLAGAWMKGDVLRVCRLLDGLREEGEEPVLLLWAVAEDVRTLIRLAAALKQGQSIQSVRNSLRLWGDKQTLAPLAVKRISVVRLLDALKTCAQIDRIIKGAEDGDAWTVFKRLVVSLAE | soluble |
| MLPEKRLLTPDDMKLWEESPTRAHFTKFIIDLAESVKGHENSQYKEPISESINSMMNLLSQIKDITQKHPVIKDADSSRFGKVEFRDFYDEVSRNSRKILRSEFPSLTDEQLEQLSIYLDESWGNKRRIDYGSGHELNFMCLLYGLYSYGIFNLSNDSTNLVLKVFIEYLKIMRILETKYWLEPAGSHGVWGLDDYHFLPFLFGAFQLTTHKHLKPISIHNNELVEMFAHRYLYFGCIAFINKVKSSASLRWHSPMLDDISGVKTWSKVAEGMIKMYKAEVLSKLPIMQHFYFSEFLPCPDGVSPPRGHIHDGTDKDDECNFEGHVHTTWGDCCGIKLPSAIAATEMNKKHHKPIPFD | soluble |
| MGSDKIHHHHHHMKIKKGDTEAEILTKGAYLYSFKIGNRDMILRGDLERPTRGGMAILIPFANRVKNAEYVFEGVKYTLPQNREGNAIHGLVMDKEFNVIGKSEDSISLQYILEHEGYPSKLDCVITYKVFKYGLRIKIVVRNVGNKRAPLTVGAHPYFITADDWRIVVEKEESIKKCISFNKIPTGELVKTKLEHTDYDDCFLISGGIQLHSSYSKVRITRRNMPFVQIYTGVRGSIAIEPMSGAPDAYHNGLGLKILEPNESSYFAFAFRFH | not soluble |
| MTFRNCVAVDLGASSGRVMLARYERECRSLTLREIHRFNNGLHSQNGYVTWDVDSLESAIRLGLNKVCAAGIAIDSIGIDTWGVDFVLLDQQGQRVGLPVAYRDSRTNGLMAQAQQQLGKRDIYQRSGIQFLPFNTLYQLRALTEQQPELIPHIAHALLMPDYFSYRLTGKMNWEYTNATTTQLVNINSDDWDESLLAWSGANKAWFGRPTHPGNVIGHWICPQGNEIPVVAVASHDTASAVIASPLNGSRAAYLSSGTWSLMGFESQTPFTNDTALAANITNEGGAEGRYRVLKNIMGLWLLQRVLQERQINDLPALIAATQALPACRFIINPNDDRFINPDEMCSEIQAACREMAQPIPESDAELARCIFDSLALLYADVLHELAQLRGEDFSQLHIVGGGCQNTLLNQLCADACGIRVIAGPVEASTLGNIGIQLMTLDELNNVDDFRQVVSTTANLTTFTPNPDSEIAHYVALIHSTRQTKELCA | soluble |
| MFYEKIQTPAYILEEDKLRKNCELLASVGEKSGAKVLLALKGFAFSGAMKIVGEYLKGCTCSGLWEAKFAKEYMDKEIHTYSPAFKEDEIGEIASLSHHIVFNSLAQFHKFQAKTQKNSLGLRCNVEFSLAPKELYNPCGRYSRLGIRAKDFENVDLSTIEGLHFHALCEESAGALEAVLKVFEEKFGKWIGQMKWVNFGGGHHITKKGYDVEKLIALCKNFSDKYGVQVYLEPGEAVGWQTGNLVASVVDIIENEKQIAILDTSSEAHMPDTIIMPYTSEVLNARILATRENEKISDLKESEFSYLLTGNTCLAGDVMGEYAFDKKLKIGDKIVFLDQIHYTIVKNTTFNGIRLPNLMLLNAKNELQMIREFSYKDYSLRN | not soluble |
| EKTVRVVINFKKTQKTIVRVSPHASLQELAPIICSKCEFDPLHTLLLKDYQSQEPLDLTKSLNDLGLRELYAMDVNRE | soluble |
| MPAGHEDIGLPQDDEAFMRYRERRIQELCGKVEEVVSEKELIEKTKSLRMIVHFYKPEFKRCKTMDKGLEEVKDCFPGIRFYRVNAEICPVVARKLEIRVLPFLGFFKDGYFVDQVVGFEKLGGDSVEPEVLKKRILDSNIFKPISSI | not soluble |
| MAHHHHHHMEALFYDHAVASTATRQADLRQALQAFLADAASRSAVQLIALFVHIPVPSTVSVASHTASGSRTSSRTSSSREGGSAAARHAATGKAASAASPSPPAASRRRCNAAKLAWCAWEADRRLRQAAEDASEMNKWLAHDDLSASRKAGAGIARSYCRGAFVVAVAFLAPCTRDDIVVYESWQRCTEMCAEASAADVARGSASRTTRMLSPLRHARLIALSLGAPSLLLSWAERPTRCHLDSLLLPHQSLLVDLSWWVATASGSAGTVSDAAAGSRVSNSVLRDIFISDVQRSLKLPKGDSRCAVWISYATLLESLHPQVMGRIDGADGDGVSVDMRVAGSASRRKRGRNTLCGEFSGVDEQAFMMTYARIRHLLSSLNASQAGAVGHTRFLRVVLSYGGPSSALRRQLVHTCSRTEHGVTAVDAALLRTRSLVDVHALFGVLAGQDTVNVYSEAAAFVRTARRRASAGEAAQQRHQRIAVQSARVEVTSSPSSGPPGTEHEGVDSGAGNLCHNAFVERGARALARRLRLWERKRLGKRGKRGVHVRPRDKAARRPMKRGHAGTNDADSERVLVHAVERASRAAATPKTGNKRRAEPLASVDGRPSASATRALLPPQKQRRTDAVAVSPTLATDTALRWSEDVAGSG | not soluble |
| MGSDKIHHHHHHMMNTTETAPVLNPALEDEYSKALDEIKQFGEAQTHTVHDLGSATWAMRKLGELNKEDAEARKVVQANIDQLNEWLQHSLEARQSRRNYLEHEVLAYVANNRKHDPKYKLDTPYGKVSFTVKRKATPAISDETQVLNFIKSNWNESEQTQVIKRTEKVLVSELKKQVTVAGDKVIDEDGQPIPGMHVDPAGTETPHIKPIQMTEALS | not soluble |
| MLKKAEKFEKIFRLESSLRALERVRDFLSQESYERLRELVLIRLKGIKIEEKELNSKVAVAFSGGSDSSATYKILAWAGFKVYPITAKLPQMRDEVLKRLESGGAIFVEIPEYMEVMEDLIRKRTAICGRCHSMVMRAVEERARELGAEIVASGDMLTVGSGSIYEKDGIVILNLPAFLALDKKELLEILGWKKYELKYGCPLWKEAAKRAPVLKKFGLQRVLRELRGGALPKEFAKELIIDILRA | not soluble |
| MGRARDAILDALENLTAEELKKFKLQAATHQGSGAAPAGIQAPPQSAAKPGLHFIDQHRAALIARVTNVEWLLDALYGKVLTDEQYQAVRAEPTNPSKMRKLFSFTPAWNWTCKDLLLQALRESQSYLVEDLERS | soluble |
| MDHFIKLLPKLTPHLRKGDCGKMGVIGGSLEYTGAPYFAASSASRLGADLIHIFCDPDAAQVIKGYSPDLIVHPGMTANSIIPKLSRMDAIVIGPGLGRNPNIWPLMQELFEFVRNRDVPFVIDGDGLWFVSEHIEKFPRQMSATVLTPNIVEFSRLCKSALGEEDVLNVRNNSQLQHLAAELSRKMNVTIYLKGEVDLVVTPNGEVSKCSTESSLRRCGGQGDVTAGSLGLFLYWAKKNLGDDWTSAHHEAGIASSWLVRTAGRRAFEKHGRSMNTPLLLDEIPKLVRDVETREMKDTVHTDSSKH | not soluble |
| MAVQKNVIKGILAGTFALMLSGCVTVPDAIKGSSPTPQQDLVRVMSAPQLYVGQEARFGGKVVAVQNQQGKTRLEIATVPLDSGARPTLGEPSRGRIYADVNGFLDPVDFRGQLVTVVGPITGAVDGKIGNTPYKFMVMQATGYKRWHLTQQVIMPPQPIDPWFYGGRGWPYGHGGWGWYNPGPARVQTVVTE | not soluble |
| MHHHHHHVSLDKAVIARLRKGGEEFEVLVDPYLARDLKEGKEVNFEDLLAAEEVFKDAKKGERASVDELRKIFGTDDVFEIARKIILEGEVQITAEQRREMLEAKRKQIINFISRNTIDPRTNAPHPPSRIERALEEAKVHIDIFKSVEAQVKDIVKALKPILPLKFEEMEIAIKIPPEHTGRAISALYNFGGVTREEWQRDGSWICVMRIPSGMYGDLMDLLGKVAKGEALTKVLRRIG | soluble |
| MPRFMRTQTKLRTIIRSNLMLNSSSMEISRSLTSWQKGARSIIHRALQYLEGNLTVIEHFPDQTQTTHEQFGQDKPDAIHAVIEIKHPDFYSRVLKGGSIAAAEAYMEGWWESPNLTALMQLMAANLGTLDKLESQSSPVTQWLNRFTHWLKRNTIDQAKDNIHQHYDLGNELYQLFLDEEMLYSSALFTQPELSLEQAQQAKMQRLCEQLQLKPTDHVLEIGTGWGAMAIYMAQHYGCKVTTTTISEEQYAYAQQKITALGLNNQITLLKQDYRLLSGQYDKLVSIEMIEAVGKAYLPTFLSQCYALLKPRGKMAIQAITIADQRYESYSNNVDFIQKYIFPGGFLPSISVLTELATKRTGLVLRNLHDIGIDYALTLQHWRDRFEQQLPKVRDLGYDERFIRMWRYYFCYCEGGFLARSISTVHMTFERD | not soluble |
